This is an account of results in patent publication US20210347867A1.

In assay [1] the target is amyloid peptide AβpE3-42 (UniProt P05067). The experiment in a line: ELISA, plate coated with AβpE3-42, antibody titrated, signal as % Max. On the technique in general: In an ELISA, binding on a coated surface is turned into a signal by an enzyme label.
Assay [2] concerns the target amyloid peptide Aβ1-42 (UniProt P05067). The experiment in a line: ELISA, plate coated with Aβ1-42 (target by legend paragraph 23), antibody titrated, signal as % Max.

Sequence of amyloid peptide Aβ1-42 (P05067 672-713 limits assumed): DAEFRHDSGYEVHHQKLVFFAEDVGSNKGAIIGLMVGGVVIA
Sequence of amyloid peptide AβpE3-42 (P05067 674-713 limits assumed): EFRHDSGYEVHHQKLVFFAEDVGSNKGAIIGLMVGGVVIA

The EC50 is the concentration at which the effect is half-maximal. The low end stands for an effect from little substance, the high end for a need for much substance. Consider Solineuzumab (antibody), for which the figures for the EC50 in assay [1] and in assay [2] were 0.15 µg/mL and 0.22 µg/mL, respectively.
